# Test results: patent EP1602931A1, “SR-A antagonists” (Universiteit Leiden, priority 2004, dated 2005)
# Where two headings read alike, the source gives them in different places. No end group written: not given here.
# T1: immobilized, biotinylated, synthetic, truncated SR-AI (Bos taurus, UniProt P21758)
# T1 sequence (P21758 1-453): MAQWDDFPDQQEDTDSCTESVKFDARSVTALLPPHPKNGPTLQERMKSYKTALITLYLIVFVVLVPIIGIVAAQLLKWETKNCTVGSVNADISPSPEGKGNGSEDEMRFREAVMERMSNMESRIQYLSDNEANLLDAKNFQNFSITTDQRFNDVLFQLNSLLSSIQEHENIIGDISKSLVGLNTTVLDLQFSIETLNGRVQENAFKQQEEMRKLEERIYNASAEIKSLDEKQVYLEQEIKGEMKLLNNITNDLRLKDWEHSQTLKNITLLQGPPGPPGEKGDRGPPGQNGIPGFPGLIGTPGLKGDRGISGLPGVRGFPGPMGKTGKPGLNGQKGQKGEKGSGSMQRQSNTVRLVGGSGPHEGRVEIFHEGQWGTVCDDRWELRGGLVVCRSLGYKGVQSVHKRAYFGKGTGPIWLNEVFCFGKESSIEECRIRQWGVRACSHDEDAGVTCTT
# T2: synthetic biotinylated bovine SR-AI (truncated, comprising the ligand binding pocket) (Bos taurus, UniProt P21758)
# T2 sequence (P21758 272-343): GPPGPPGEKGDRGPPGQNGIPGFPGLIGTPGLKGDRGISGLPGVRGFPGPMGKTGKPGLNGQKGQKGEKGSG
# Legend:
# [1] = molecular target: T1, immobilized, biotinylated, synthetic, truncated SR-AI; assay: Competition of selected phage pool binding to immobilized synthetic SR-AI; parameters: species or system bovine
# Description: (§1) All peptides were synthesized on an automated peptide synthesizer (9050 Millipore, MA) using standard Fmoc solid-phase peptide synthesis. Crude peptides were purified on a preparative C8 RP-HPLC column (Altech, Deerfield, IL) using a JASCO PU-980 (Tokyo, Japan). Purified peptides were further characterized by LC-MS in Division of Analytical Biosciences, Leiden University. The purity of the peptide, as checked by MALDI-TOF mass spectrometry and RP-HPLC, was at least 70%. Lyophilized peptides were stored at -20°C under nitrogen until further use. Synthetic biotinylated bovine SR-AI was synthesized, purified and characterised as described by Suzuki et al. (Suzuki et al., 1999).
# In analogy to the phage selection procedure, 10 µg/ml of streptavidin in coating buffer was incubated overnight at 4°C in a high-binding 96-well plate at 100 µl/well. Wells were washed 3x with assay buffer and incubated for 1 h at 37°C with blocking buffer. Next, wells were incubated for 2h at 37°C with 125 nM biotininylated SR-AI binding peptide (100 µl/well), washed 3x with binding buffer, after which the SR-AI ligands or synthetic SR-AI binding peptides (7, 9, 11, 13, 15 a. a.) were added and the solution (100 µl) was left to incubate for 2h at RT with the enriched phage pool (round 7) at 10^8 cfu. Wells were washed 10x with binding buffer, binding phage were eluted by incubation for 5 min at RT with 100 µl elution buffer, and neutralized with 50 µl neutralization buffer (1M Tris-HCI, pH 8.5). Residual phage binding was calculated from the output ratio.
# [2] = molecular target: Synthetic biotinylated bovine SR-AI (synthetic, truncated SR-AI comprising the ligand binding pocket) (bovine) (UniProt P21758); assay: competition of selective phage pool binding to immobilized biotinylated SR-AI by suc-HSA
# [3] = molecular target: T2, synthetic biotinylated bovine SR-AI (truncated, comprising the ligand binding pocket); assay: Competition of enriched phage pool binding to immobilized biotinylated synthetic SR-AI; conditions: displacement of enriched phage pool (round 7, 10^8 cfu) from streptavidin-immobilized biotinylated SR-AI peptide; 0-300 µm peptide; 2h at RT; calculated from displacement curves
# Description: as §1
# 10 µg/ml of streptavidin in coating buffer (50 mM NaHC03, pH 9.6) was incubated overnight at 4°C in a high binding 96 well plate (Costar, Coming, UK) at 100 µl/well. Subsequently, wells were washed with assay buffer (20 mM HEPES, 150 mM NaCl, 1mM CaCl2, pH 7.4) and incubated for 1 hour at 37°C with blocking buffer (3% BSA in assay buffer). […]
# In analogy to the phage selection procedure, 10 µg/ml of streptavidin in coating buffer was incubated overnight at 4°C in a high-binding 96-well plate at 100 µl/well. […] Residual phage binding was calculated from the output ratio.
# [4] = molecular target: Synthetic biotinylated bovine SR-AI (synthetic, truncated SR-AI comprising the ligand binding pocket) (bovine) (UniProt P21758); assay: competition of enriched phage pool binding to immobilized biotinylated SR-AI peptide by synthetic peptide
# [5] = molecular target: Synthetic biotinylated bovine SR-AI (synthetic, truncated SR-AI comprising the ligand binding pocket) (bovine) (UniProt P21758); assay: competition of enriched phage pool binding to immobilized biotinylated SR-AI; IC50 against that of poly I
# [6] = molecular target: Synthetic biotinylated bovine SR-AI (synthetic, truncated SR-AI comprising the ligand binding pocket) (bovine) (UniProt P21758); assay: competition of enriched phage pool binding to immobilized biotinylated SR-AI peptide by synthetic peptide; remark: listed apart in the source
# [7] = synthetic peptides (0-300 µM) competing with binding of enriched phage pool (round 7) to biotinylated SR-AI peptide, calculated from displacement curves, three independent experiments
"IC50 [1, 7]",IC50 [6],Molecule,other results
80.9 µM,,RFLRCWSDAPA [RFLRCWSDAPA],
72.3 µM,,LERFLRCWSDAPA [LERFLRCWSDAPA],
29.1 µM,,"LSLERFLRCWSDAPA [PP1, LSLERFLRCWSDAPA]",IC50 [1]: 28.3 µM
,,Succinylated human serum albumin (from UniProt P02768 25-609) (ligand),IC50 [2]: 66 µg/mL
,,LSLERFLRCWSDAPA [PP1],IC50 [3]: 29 µM
,,"LSLERFLRCWSDAPA [PP1 (…), synthetic full-length peptide]",IC50 [4]: 50 µg/mL; fold less potent than poly I [5]: 5 fold
,72.3 µM,LERFLRCWSDAPA [PP1-13 (…)],
,80.9 µM,RFLRCWSDAPA [PP1-11 (…)],
,217 µM,CWSDAPA [PP1-7 (CWSDAPA)],
